This note sets out measurements from patent US20090074779A1.

In the assay the target is TrkC, Q16288. Briefly: SPR (BIAlite), receptor amine-coupled on CM4 chip, ligand injected, 25 C. The conditions noted are these: remark: other sources report otherwise.
Sequence of TrkC, Q16288 (Q16288 32-429 limits assumed): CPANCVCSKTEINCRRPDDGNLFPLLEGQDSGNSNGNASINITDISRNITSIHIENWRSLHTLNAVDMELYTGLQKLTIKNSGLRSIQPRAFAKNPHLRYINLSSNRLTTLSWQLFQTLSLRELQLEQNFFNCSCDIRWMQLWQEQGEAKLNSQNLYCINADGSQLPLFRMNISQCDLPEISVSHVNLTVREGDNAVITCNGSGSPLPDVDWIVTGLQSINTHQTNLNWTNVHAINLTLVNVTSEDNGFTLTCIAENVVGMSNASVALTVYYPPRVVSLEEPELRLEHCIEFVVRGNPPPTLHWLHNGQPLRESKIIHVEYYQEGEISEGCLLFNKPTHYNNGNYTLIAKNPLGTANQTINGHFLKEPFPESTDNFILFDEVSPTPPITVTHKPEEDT

B1: BDNF, P23560 129-247 (ligand, UniProt P23560 129-247, looked up)
chain: HSDPARRGELSVCDSISEWVTAADKKTAVDMSGGTVTVLEKVPVSKGQLKQYFYETKCNPMGYTKEGCRGIDKRHWNSQCRTTQSYVRALTMDSKKRIGWRFIRIDTSCVCTLTIKRGR
One may read the Kd as a measure of binding affinity in units of concentration. A low value points to higher affinity. Molecule B1 gave a Kd of 14 nM.
